The text below walks through data of patent publication US20040132187A1.

This assay addresses endogenous bradykinin receptor of α7/5-HT3-SH-EP1 cells. Put plainly: cell-based or functional assay.

On to “bradykinin (from UniProt P01042 381-389) (peptide)”, for which the increase in intracellular calcium (Calcium Green-1, FLIPR) was found to be 100 nM.
